Measurements from the nanobody polyreactivity screen of Harvey et al. (2022).

Test: yeast display, Sf9 membrane polyspecificity reagent, FACS + sequencing; frameworks hold sequencing errors
Outline: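 In a synthetic yeast display library (Saccharomyces cerevisiae BJ5465), nanobody expression was induced with galactose for 36–48 hours. FACS gates were set low and high (top ~1%) using anti-HA fluorescence for expression and streptavidin fluorescence for binding of the Sf9 membrane reagent. Each polyreactivity label is drawn from the gate of origin.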

| Sequence | polyreactivity (PSR sort gate) |
| --- | --- |
| QVQLVESGGGLVQAGGSLRLSCAASGFIFATYNMGWYRQAPGKERELVAAITWRGGSTYYADSVKGRFTISRDNAKITVYLQMNSLKPEDTAVYYCAAQDVYSYRYVEDDYWGQGTQVTVSS | low polyreactivity |
| QVQLVESGGGLVQAGGSLRFSCAASGFIFRDNAMVWYRRAPGKERELVAAISYSGGSTYYADSVKGRFTISRDNAKNTVYLQMNSVKPEDTAVYYCAASYGPKRRGYWGQGTQVTVSS | high polyreactivity |
| QVQLVESGGGLVQAGGRLRLSCAASGFIFTEYAMGWYRQSPGKERELVAAINSGGRTKYADSVKGRFTISRDNAKNTVFLQMNSLKPEDTAVYYCAARRFPTYDYWGQGTQVTVSS | high polyreactivity |
| QVQLVESGGGLVQAGGSLRLSCAASGSIFTWYAMGWYRQAPGKERELVAAISEDGGSTYYADSVKGRFTISRDNAKNTVYLQMNSLKPEDTAVFYCATPVASVTGYDYWGQGTQVTVSS | low polyreactivity |
| HVQLQESGGGLVQAGGSMRLSCAESGSISELRPMGLYRKAPGKERELVAGISTGGSTNYADSVKGRFTISLDNAKNTVYLQMNSLKPEYTAVYFCAAASYCEGTYDYWGQGTQVTVRS | high polyreactivity |
| QVQLVESGGGLVQAGGSHRLSCAASGSIFALYAMGWYREAPGKEREFVAAISWNGGRTYYADSVKGRFTISRDNAKNTVYLQMNSLKPEDTAVYYCAARSWYAYDYWGQGTQVTVSS | high polyreactivity |
| QVQLVESGGGLVQAGGSLRLSCAASGYTFGSNAMGWYRQAPGKERELVAAIRYRGDRTYYADSVKGRFTISRDNAKNTVYLQMNSLKPEDTAVYYCAATYGYNTLYRPLRFDYWGQGTQVTVSS | high polyreactivity |
| QVQLVESGGGLVQAGGSLRLSCAASGSTFTENAMGWYRQAPGKERELVATISTSDGSTHYADSVKGRFTISRDNAKNTVYLQMNSLKPEDTAVSYCAARPDYYLWHGYYTRRHYYWGQGTQVTVSS | low polyreactivity |
| QFQLVESGGGFVQAGGSLRLSCAASGYTFQRYAMGWYRQAPGKERELVATISKRGGSTYYADSVKGRFTISRDNAKNTDYLQMNSLKPEDTAVYYCNKLRGLHNGYDYWGQGTQVTVSS | high polyreactivity |
| QVQLVESVGGLVQAGGSLRLSLAASGFTFWYYAMGWYRQAPGKERELVAVINTSGGSTYADSVKGRFTISRDNAKNTVYLQMNSLKPEDTAVYYCAAEGISTYPYDYCGQGTQVTVSS | low polyreactivity |
| QVQLVESGGGLVHAGGSLRLSSSASGSTFPVYAMGWYRQAPGKQRELVAAITSGVSTNYADSVKWRFTISRENAKNTVYLQMNSLKPEDTAVYYCAKDFGLLPIRDDYWGQGTQVTVSS | low polyreactivity |
| QVQLVESGGGLVQAGGSLRLSCDASGFTFGRNAMGWYRQAPGKERELVAAISSSGGTTYYADSVKGRFTISRDNAKNTVYLQMNSLKPEDTAVYYCAAGYYYRYDYWGQGTQVTVSS | high polyreactivity |
| QVQLVESGGGLVQAGGSLRLSCDASGFTFYYYAMGWYRPAPGKERELVAAISSSGSSTYYADSVKGRFTISRDNAKNTVYLQMNSLKPEDTAVYYCNARRYEYLWGDYWGQGTQVTVSS | high polyreactivity |
| QVQLVESGGGLVQAGGSLRLSCAASGSTFKYYAMGWYRQAPGKERELVARISSGGNTKYADSVKGRFTISRDNAMNTVYLQMNSLKPEDTAVYYCAAGYPGVGYAYDYWGQGTQVTVSS | high polyreactivity |
| QVQLVESGGGLVQAGGSLRLSCAASGITFDYYAMGWYRQAPGKERELVAAIRSGGSTNYADSVKGRFTISRDNAKNTVYLQMNSLKPVDTAVYYCAAVRYYPWYDYWGQGTQVTVSS | high polyreactivity |
| QVQLVESGGGLVQAGGSLRLSCAASGSIFWKNAMGWYRQAPGKERELVAAITRRGGSTYYADSVKGRFTISRDNAKNTVYLQMNSLKPEDTAVYYCAATGGAPYKIEWGQGTQVTVSS | low polyreactivity |
| QVQLGESGGGLVQAGGSLGLSCAASGGTLRVNTMGWYRQAPGKERELVAAISTRSGRTYYADSVKGRFTISRDNAKYTVYLQMNSLKPEDTAVYYCAATLYRRRSAFDGDWGQGTQVTVSS | high polyreactivity |
| QVQLVESGGGLVQAGGSLRLSCAASGLTFNVYAMGWYRQAPGKERELVASITKRGGSTYYADSVKGRFTISRDNAKNTVYLQMNSLKPEDTAVYYCAADGLTGSKYRATGYYWGQGTQVTVSS | high polyreactivity |
| QVQLVDSGGGLVQAGGRLRLSCAASGLIFSYYARGRYRQGPRKERELVPAISSGGRTSYADSVKGRFTISRDNEKNTVYLKMNSVKPEASAVYYCAAYPVYNRPGDYWGQGTQVTVSS | high polyreactivity |
| QVQLVESGGGLVQAGGSLRLSCAASGSIFTPNAMGWYRQAPGKERELVAAISSSSDRTYYADSVKGRFTLSRDNAKNTVYLQMNSLKPEDTAVYYCAAYAQKRYYWGQGTQVTVSS | high polyreactivity |
| QFQLVESGGGLVQAGGSLRLSCAASGSTFVWNAMGWYRPAPGKERELVAAITNDGRTNYADSVKGRFTISRDNAKNTVYLKMNSLKPEDTAVYYCNADGYNSYWWNYYWGQGTQVTVSS | low polyreactivity |
| QVQLVESGGGLVQAGGSLRISCAASGRTFVVYAMGWYRPAPGKERELVAAIRGSGGSTNYADSVKGRFTISRDNAKNTVYLQMNSLKPEDTAVYYCAATSSLGDFRYDYWGQGTQVTVSS | high polyreactivity |

| Sequence | polyreactivity (PSR sort gate) |
| --- | --- |
| QVQLVESGGGLVQAGGSLRLSCAASGFTIIRYAMGWYRQAPGKERDLVAAITTSGSGTYYAHSVKGRFTISRDNAKNTVYLQMNSLKPEDTAVDYCATDYRYRSYSRGAHDYWGQGTQVTVSS | low polyreactivity |
| QDQLVESGGGLVQAGGSLRLSCAASGRILGSNTMGWDRQAPGKERELVAAITSAGNTNYADSVKGRFTISRDNAKNTVYLQMNSLKPEDTAVYYCNVRGQRLYYRVRRLYDYWGQGTQVTVSS | high polyreactivity |
| QVQLVESGGGLVQAGGSLRLSCAASGRTFVSYAMGWYRQAPGKERELVATITGSTGGTYYADSVKGRFTISRDNAKNTVYLQMNSLKPEDTAVYYCNKDYYYNPGNVASGYDYWGQGTQVTVSS | low polyreactivity |
| QVQLVESGGGLVQAGGSLRLSCAASGSTFSGYAMGWYRQAPGKERELVGAISSSGGRTNYADSVKGRFTISRDNAKNTVYLQMNSLKPEDTAVYYCASVGPRTEYSGYRYYYWGQGTQVTVSS | high polyreactivity |
| QVQLVESGGGLVQAGGSLRLSCAASGIIFYYYVLGWYRQAPGKERELVAAISARGGSTTYADSVKGRFTISRDNAKNTVYLQMISLKPEDTAVYYCAADVSYWRHGYQLSYDYWGQVTQVTVSS | high polyreactivity |
| QVQLVESGGGLVQAGGSLRLSCAASGRTFFTYAMGWYRQAPGKERELVAAITWSGGSTYYADSVKGRFTISRDNAKNTVYLQMNSLKPEDTAVYYCAADGSVAYYSAFGSVQIWYYYWGQGTQVTVSS | low polyreactivity |
| QVQLVESGGGLVQAGGSLRLRCAASGSTFYLNAQGWYRQATGKEREFVAAITVSGGSTYYADSVKARFTISRDNAKNTVYLKMNSLKPEDTAVYYCARELLSPTYQRWYYYWGQGTQVTVSS | low polyreactivity |
| QVQRVESGGGLVQARGSLRLSCAASGLIFPPNVMGWYRQAPGKESEFVAAITSSGSTNYADSVKGRFTISRDNAKYTVYIQMNSLKPEDTAVYYCARDQTWSYQPWYYLSYPQYEYWGQGTEVTVSS | low polyreactivity |
| QVQLVESGGGLVQAGGSLRLICAASGSIFPFNAMGWYRQAPGKERELVAAISSSGGSTSYADSVKGRFTISRDNAKNTVYLQMNSLKPEDTAVYYCNVRYRSAGSRYGYWGQGTQVTVSS | low polyreactivity |
| QVQLVESGGGLVQAGGSLRLSCAASGRIFYSNVMGWYRQAPGKERELVAAIRFSGGGTYYADSVKGRFTITRDNAKNTVYLQMNSLKPEDTAVYYCAAEYYLRVSGRTYVTSHDYWGQGTQVTVSS | high polyreactivity |
| QVQLVESGGGLVQAGGSLRLSSAGSGRIFGYYAMGGYRQAPGTETELVAAISSNGGSTYYADSVKGRFTISRDNANNTVYLQMNSLQPEDTAVYYCKVYFYSRHYFYRGDYWGQGTQVTVSS | high polyreactivity |
| QVQLVESGGGLLKAGGSLRLSCAASRITFYIYPIVWYRQAPGKERELVATISWSDGRTYYADSVKGRFTISRDNAEHTVYLQLYSLKPEDTAVYYCAADWWYYQFDYEYWGQGTPVTVSS | low polyreactivity |
| QVQLVESGGGLVQAGGSLRLSCAASGFIFTYYDMGWYRQAPGKERELVASISWDGGRTYYADSVKGRFTISRDNAKNTVYLQMNSLKPEDTAVYYCAKRLGGSPIQARGDYWGQGTQVTVSS | low polyreactivity |
| QVHLVESGVGLVQAGGSLRLSCASSGSTYKPNALGWYSQAPGKESEFVAAITSGSTYYADTVKGRYTISRDNAKYNVYLQMNSLKPEDTAVYYCATSVRGKSPYRKSGSYYYWGQGTQVTVSS | high polyreactivity |
| QVQLVESGGGLVQAGGSLRLSCAASGNIFYNVMGWYRQAPGKERELVAVISSGDSTYYADSVKGRFTISRDNAKNTVYLQMNSLKPEDTAVYYCNAQWITSAYLLYSYDYWWGYDYWGQGTQVTVSS | high polyreactivity |
| QVQLVESGGGLVQAGGSLRLSCAASGSIYYYAMGWYRQAPGKEMELVAAITRSGGGTYYADSVKGRFTISRDNAKNTVYLQMNSLKPEDTAVYYCAAARYSRAQPNWTYNYWGQGTQVTVSS | high polyreactivity |
| QVHLVESGGGLVQAGGSLRLSCSASGSIFAINVMGWYRQAPGKEREFVAAITWSGGSTYYADSVKGRVTISRDNAKNTVYLQMFSLKPEDTAVYYCNARYPYKRRDYDYWGQGTQVTVSS | high polyreactivity |
| QVQLVESGGGLVQAGGSLRLSCAPSGRIFGHYAMGWYRQATGKERELVAAINWRGGSTYYADSVNGRFTISRDNAKNTVYLQMNSLKPEDTAVYYCAADWTKARDSIYDYWGQGTQVTVSS | low polyreactivity |
| QVQLVESGGGLVQAGGSLRLSCAASGSIFWYYAMGWYRQAPGKERELVASITSAGSTNYADSVKGRFTISRDNAKNTVYLQMNSLKPEDTAVYYCNTDDDSSSTGYYSWGQGTQVTVSS | low polyreactivity |
| QVQLVESGGGLVQAGGSLRLSCAASGRTSSWYVMGWYRQAPGKERELVAAISGSGGSTYYADSVKGRFTISRDNAKNTVYLQMNSLKPEDTAVYYCAADSWSYSGYNYWGQGTQVTVSS | high polyreactivity |
| QDQLVESGGGLVQAGGSLRLSCAASGFTFGDNAMGWYRQAPGKERELVAAITSSGSTNYADSVKGRFTISRDNAKNTVYLQMNSLKPEDTAVYYCNAEDSVDAPVYKDLGSEYDSWGQGTQVTVSS | low polyreactivity |
